From US12258605B2, “Alkane oxidation by modified hydroxylases” (The California Institute of Technology, priority 2005, dated 2025)

B1: Wild-type BM-3: wild-type cytochrome P450 BM-3 from Bacillus megaterium, SEQ ID NO:1 (protein, listed as Bacillus megaterium)
chain: TIKEMPQPKTFGELKNLPLLNTDKPVQALMKIADELGEIFKFEAPGRVTRYLSSQRLIKEACDESRFDKNLSQALKFVRDFAGDGLFTSWTHEKNWKKAHNILLPSFSQQAMKGYHAMMVDIAVQLVQKWERLNADEHIEVPEDMTRLTLDTIGLCGFNYRFNSFYRDQPHPFITSMVRALDEAMNKLQRANPDDPAYDENKRQFQEDIKVMNDLVDKIIADRKASGEQSDDLLTHMLNGKDPETGEPLDDENIRYQIITFLIAGHETTSGLLSFALYFLVKNPHVLQKAAEEAARVLVDPVPSYKQVKQLKYVGMVLNEALRLWPTAPAFSLYAKEDTVLGGEYPLEKGDELMVLIPQLHRDKTIWGDDVEEFRPERFENPSAIPQHAFKPFGNGQRACIGQQFALHEATLVLGMMLKHFDFEDHTNYELDIKETLTLKPEGFVVKAKSKKIPLGGIPSPSTEQSAKKVRKKAENAHNTPLLVLYGSNMGTAEGTARDLADIAMSKGFAPQVATLDSHAGNLPREGAVLIVTASYNGHPPDNAKQFVDWLDQASADEVKGVRYSVFGCGDKNWATTYQKVPAFIDETLAAKGAENIADRGEADASDDFEGTYEEWREHMWSDVAAYFNLDIENSEDNKSTLSLQFVDSAADMPLAKMHGAFSTNVVASKELQQPGSARSTRHLEIELPKEASYQEGDHLGVIPRNYEGIVNRVTARFGLDASQQIRLEAEEEKLAHLPLAKTVSVEELLQYVELQDPVTRTQLRAMAAKTVCPPHKVELEALLEKQAYKEQVLAKRLTMLELLEKYPACEMKFSEFIALLPSIRPRYYSISSSPRVDEKQASITVSVVSGEAWSGYGEYKGIASNYLAELQEGDTITCFISTPQSEFTLPKDPETPLIMVGPGTGVAPFRGFVQARKQLKEQGQSLGEAHLYFGCRSPHEDYLYQEELENAQSEGIITLHTAFSRMPNQPKTYVQHVMEQDGKKLIELLDQGAHFYICGDGSQMAPAVEATLMKSYADVHQVSEADARLWLQQLEEKGRYAKDVWAG
B2: 35-E11: P450 BM-3 variant, SEQ ID NO:7: 53-5H substitutions plus E464G and I710T (protein)
chain: TIKEMPQPKTFGELKNLPLLNTDKPVQALMKIADELGEIFKFEAPGCVTRYLSSQRLIKEACDESRFDKNLSQALKFFRDFSGDGLFTSWTHEINWKKAHNILLPSFSQQAMKGYHAMMVDIAVQLVQKWERLNADEHIEVSEDMTRLTLDTIGLCGFNYRFNSFYRDQPHPFIISMVRALDEVMNKLQRANPDDPAYDENKRQCQEDIKVMNDLVDKIIADRKARGEQSDDLLTQMLNGKDPETGEPLDDGNISYQIITFLIAGHETTSGLLSFALYFLVKNPHVLQKVVEEAARVLVDPVPSYKQVKQLKYVGMVLNEALRLWPTFPAFSLYAKEDTVLGGEYPLEKGDEVMVLIPQLHRDKTIWGDDVEEFRPERFENPSAIPQHAFKPFGNGQRACIGQQFALHEATLVLGMMLKHFDFEDHTNYELDIKETLTLKPEGFVVKAKSKKIPLGGIPSPSTGQSAKKVRKKAENAHNTPLLVLYGSNMGTAEGTARDLADIAMSKGFAPQVATLDSHAGNLPREGAVLIVTASYNGHPPDNAKQFVDWLDQASADEVKGVRYSVFGCGDKNWATTYQKVPAFIDETLAAKGAENIADRGEADASDDFEGTYEEWREHMWSDVAAYFNLDIENSEDNKSTLSLQFVDSAADMPLAKMHGAFSTNVVASKELQQPGSARSTRHLEIELPKEASYQEGDHLGVIPRNYEGTVNRVTARFGLDASQQIRLEAEEEKLAHLPLAKTVSVEELLQYVELQDPVTRTQLRAMAAKTVCPPHKVELEALLEKQAYKEQVLAKRLTMLELLEKYPACEMKFSEFIALLPSIRPRYYSISSSPRVDEKQASITVSVVSGEAWSGYGEYKGIASNYLAELQEGDTITCFISTPQSEFTLPKDPETPLIMVGPGTGVAPFRGFVQARKQLKEQGQSLGEAHLYFGCRSPHEDYLYQEELENAQSEGIITLHTAFSRMPNQPKTYVQHVMEQDGKKLIELLDQGAHFYICGDGSQMAPAVEATLMKSYADVHQVSEADARLWLQQLEEKGRYAKDVWAG
modifications: mutant P450 35-E11 protein sequence

Assays:
Format in all cases: biochemical
[1] = Reactions on alkanes, total turnovers (Table 18): heptane; settings: heptane (7 C atoms); for % rel. act.: TTN normalized to the highest value of the variant's series; for TTN: total turnovers, standardized reaction conditions
Protocol: (§1) Reactions on alkanes. Reactions with alkanes from pentane to decane were carried out at 3 mL-scale using 100 mM KPi pH 8.0 buffer containing 2% ethanol (to allow alkane solubilization) and purified protein. 2.5 mL KPi buffer were added with 60 μL of 90 mM alkane solution in ethanol (final conc.=1.8 mM), 150 μL enzyme solution at 1 μM (final conc.=50 nM), and 300 μL NADPH regeneration solution (100 units/mL isocitrate dehydrogenase, 70 mg/mL isocitrate, 1.5 mg/ml NADP^+). Vials were sealed and stirred for 24 hours at 4° C. 1 mL-aliquot of the reaction was removed, added with 10 μl internal standard (25 mM 1-bromohexane in ethanol), and extracted with 200 μl chloroform (30 sec vortexing, 1 min centrifugation at 10000 g). The organic phase was removed and analyzed by gas chromatography. Reactions with ethane, propane, and butane were carried out as described for longer alkanes with the only difference that alkane-saturated KPi buffer was used. Propane reactions with variants from HL5 and L9 libraries were performed on 1 mL-scale reaction using 20 nM enzyme to reduce oxygen limitation. Propane and butane reactions were analyzed by direct injection of reaction solution on the GC using 1-pentanol as internal standard. Ethane reaction products were functionalized (see below) and analyzed by GC using 1-butanol as internal standard. All measurements were performed in triplicate.
(§2) Products from alkane reactions were identified and quantified by gas chromatography using authentic standards and calibration curves with internal standards. For the reactions with alkanes from pentane to decane, GC analyses were carried out using a Shimadzu GC-17A gas chromatograph, Agilent HP5 column (30 m×0.32 mm×0.1 μm film), 1 μL injection, FID detector, and the following separation program: 250° C. inlet, 250° C. detector, 50° C. oven for 3 min, 5° C./min gradient to 100° C., 25° C./min gradient to 230° C., and 230° C. for 3 min. For butane and propane (TTN) reactions, GC analyses were carried out using a Hewlett-Packard 5890 Series II Plus gas chromatograph, Supelco SPB-1 column (60 m×0.52 mm×0.5 μm film), 0.5 μL injection, FID detector, and the following separation program: 250° C. inlet, 275° C. detector, 80° C. oven for 2 min, 10° C./min gradient to 110° C., 25° C./min gradient to 275° C., and 275° C. for 2.5 min. For ethane and propane (rate) reactions, analysis of reaction mixtures was carried out by derivatization to alkyl nitrites followed by GC-ECD analysis. For laurate, reaction product analysis was carried out by derivatization with N-methyl-N-trimethylsilylheptafluorobutyramide followed by extraction with hexane. Organic solutions were analyzed by FID-GC.
(§3) TTNs for each variant-substrate pair were determined using standardized reaction conditions (identical enzyme and substrate concentration, incubation time, cofactor regeneration system) (Table 18). TTN values were used to assess performance because TTN is a cumulative measure of both catalytic and coupling efficiency and because mutants were selected based on improvement in this property. To facilitate comparison among the variants, TTNs were normalized to the highest value in the series (MTN=Maximal Turnover Number) and plotted for the increasing-sized substrates (FIG. 38). A gradual shift of the enzyme's substrate preference during laboratory evolution is evident from these profiles. The marginal activity of wild-type BM3 on these substrates (MTN=150) is restricted to the long-chain alkanes, where it is a promiscuous function of BM3's high C12-C20 fatty acid hydroxylase activity. In the first evolutionary intermediates, substrate preference centers on medium-chain alkanes […], reflecting their selection for activity on octane. In 35E11, selected for activity on propane, preference still centers on C6-C8 alkanes but now extends towards the shorter ones, including propane. Propane activity becomes prevalent with the transition from variant ETS8 to 19A12. […]

[2] = Reactions on alkanes, total turnovers (Table 18): octane; settings: octane (8 C atoms); for % rel. act.: TTN normalized to the highest value of the variant's series; for TTN: total turnovers, standardized reaction conditions
Protocol: as §1, §2, §3

[3] = Kinetic constants for n-alkanes: octane
Protocol: Rate measurements. Initial rates of product formation were determined at 25° C. in 100 mM KPi pH 8.0 buffer using purified protein (100 nM) and a substrate concentration of 1.6 mM. In a 5 mL-vial, 20 μL of alkane solution (in ethanol) were dissolved in 400 μL KPi buffer, to which 500 μL enzyme solution at 100-200 nM was added. Reaction was initiated by adding 100 μL of 5 mM NADPH solution, followed by stirring at 300 rpm for 1 minute, and quenched by adding 200 μL chloroform and stirring at 800 rpm for 10 sec. Solutions were transferred to an Eppendorf tube, to which internal standard (10 μL 25 mM 1-bromohexane in ethanol) was added. Tubes were vortexed for 10 sec and centrifuged for 30 sec at 10,000 g. Organic phase was removed and analyzed by GC. For propane, reactions were carried out in a 5 mL-scale using 100-400 nM purified enzyme, propane-saturated buffer (propane concentration≈1.6 mM) and a final NADPH concentration of 500 μM. Reactions were stopped by addition of 200 μL H2SO4 conc. and analyzed by derivatization to alkyl nitrites followed by GC-ECD analysis as described below.
as §2
To further investigate the evolution of substrate specificity, kinetic constants for the C5 to C8 alkanes were determined from Michaelis-Menten plots (Table 19). The preference of 35E11 and its evolutionary predecessors for medium-chain alkanes is indicated by their high C8/C5 specificities ((kcat/Km)8/(kcat/Km)5˜100), where Km appears to be the major contributing factor. C8/C5 specificity decreases to ˜5 in the immediate precursors of P450PMO and then switches altogether to the smaller alkane, becoming 0.4 in P450PMO. In P450PMO, catalytic efficiency is highest on propane and decreases along the alkane series, driven by decreasing kcat.

[4] = Reactions on alkanes, total turnovers (Table 18): decane; settings: decane (10 C atoms); for % rel. act.: TTN normalized to the highest value of the variant's series; for TTN: total turnovers, standardized reaction conditions
Protocol: as §1, §2, §3

[5] = Reactions on alkanes, total turnovers (Table 18): propane; settings: propane (3 C atoms); for % rel. act.: TTN normalized to the highest value of the variant's series; for TTN: total turnovers, standardized reaction conditions
Protocol: as §1, §2
Because 35E11 was only marginally stable, the engineering strategy described herein (see below) involved an initial stabilization step followed by iterative rounds of mutagenesis and screening. Random, saturation and site-directed mutagenesis methods were used to create libraries of mutants (FIG. 35), which were screened for activity on a propane surrogate, dimethyl ether. Positives were confirmed in a re-screen and purified for further analysis. Reactions with purified enzymes were carried out in sealed vials in the presence of propane-saturated buffer and a cofactor regeneration system. Improvement in propane total turnover number-moles of propanol produced per mole of enzyme—was a selection criterion for taking a mutant to the next round.
TTNs for each variant-substrate pair were determined using standardized reaction conditions (identical enzyme and substrate concentration, incubation time, cofactor regeneration system) (Table 18). TTN values were used to assess performance because TTN is a cumulative measure of both catalytic and coupling efficiency and because mutants were selected based on improvement in this property. […]

Row | Molecule | % rel. act. [1] [%] | TTN [1] | % rel. act. [2] [%] | TTN [2] | Km [3] [µM] | kcat [3] [s⁻¹] | % rel. act. [4] [%] | TTN [4] | % rel. act. [5] [%] | TTN [5]
1 | B1 | 12.5 | 20 ± 5 | 18.8 | 30 ± 42 | > 5000 | <0.083 | 100.0 | 160 ± 95 | 0.0 | 0
2 | B2 | 81.4 | 5170 ± 148 | 93.7 | 5950 ± 323 | 85 ± 25 | 6.5 ± 1.58 | 13.5 | 860 ± 223 | 71.7 | 4550 ± 350
